Laboratory results taken from US9040042B2, “Optimized antibodies that target HM1.24” (Xencor, Inc., priority 2006, dated 2015).
Several values for one entry are separate records, joined by “and”; a condition that tells them apart may be missing. Identical values can stand only once. Like-named read-outs stand apart in the source and are kept apart here.

Tests used:
[1] = biological target: T1, human V158 FcγRIIIa (Homo sapiens, UniProt P08637, F176V); assay: Binding of human WT IgG1 to human V158 FcγRIIIa (Biacore, calorimetry); conditions: present study; read-out: affinity for human V158 FcγRIIIa
T1 sequence (P08637 17-208 F176V limits assumed): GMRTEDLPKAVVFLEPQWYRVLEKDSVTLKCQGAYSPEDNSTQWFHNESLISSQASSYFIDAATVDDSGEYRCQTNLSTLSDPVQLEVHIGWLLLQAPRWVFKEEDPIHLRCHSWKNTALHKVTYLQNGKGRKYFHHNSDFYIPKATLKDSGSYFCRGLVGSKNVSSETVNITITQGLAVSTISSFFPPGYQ
Protocol: (§1) This is consistent with the literature which indicate that binding is approximately 200-500 nM, as determined by Biacore (210 nM as shown in Okazaki et al, 2004, J Mol Bio 336:1239-49; 250 nM as shown in Lazar et al, Proc Natl Acad Sci USA 103(11):4005-4010) and calorimetry (530 nM, Okazaki et al, 2004, J Mol Bio 336:1239-49).

[2] = biological target: T2, human F158 FcγRIIIa (Homo sapiens, UniProt P08637); conditions: read-out: affinity for human F158 FcγRIIIa, cited from earlier work
T2 sequence (P08637 17-208 limits assumed): as the sequence (P08637 17-208 F176V limits assumed) above, with V160F counted along it

[3] = biological target: T1, human V158 FcγRIIIa; conditions: read-out: affinity for human V158 FcγRIIIa, cited from earlier work
[4] = biological target: T2, human F158 FcγRIIIa; assay: Binding of human WT IgG1 to human F158 FcγRIIIa (Biacore, calorimetry); conditions: present study; binding lower than the 5 uM cutoff applied; read-out: affinity for human F158 FcγRIIIa
Protocol: as §1

[5] = biological target: T3, CD20 (Homo sapiens, UniProt P11836); conditions: cited from earlier work
T3 construct: endogenous in cells; host or cells: patients' own cells (clinical treatment, reported from the literature)
T3 sequence (P11836 1-297): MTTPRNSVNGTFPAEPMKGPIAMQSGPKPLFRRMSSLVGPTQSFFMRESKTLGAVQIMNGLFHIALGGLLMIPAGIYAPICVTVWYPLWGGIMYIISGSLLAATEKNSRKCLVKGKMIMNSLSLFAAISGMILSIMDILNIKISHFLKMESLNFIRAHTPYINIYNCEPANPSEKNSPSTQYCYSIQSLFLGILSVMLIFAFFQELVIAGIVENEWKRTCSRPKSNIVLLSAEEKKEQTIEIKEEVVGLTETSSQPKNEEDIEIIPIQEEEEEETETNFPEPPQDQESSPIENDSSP

[6] = calorimetry, Okazaki et al 2004

Substance: human WT IgG1: Human wild type IgG1 immunoglobulin, reference for Fc receptor binding
- Kd [1]: ~0.24 µM
- Kd ([2]; Biacore, Ferrara et al 2006): 5 µM
- Kd [2, 6]: 2.7 µM
- Kd ([2]; literature overall): 3 to 5 µM
- Kd ([3]; Biacore, Okazaki et al 2004, Lazar et al): 0.21 µM and 0.25 µM
- Kd [3, 6]: 0.53 µM
- Kd ([3]; literature overall): 0.2 to 0.5 µM
- Kd ([3]; one study, Ferrara et al 2006): 0.75 µM
- Kd [4]: > 5 µM

Substance: Rituxan: anti-CD20 antibody Rituxan® (rituximab)
- clinical efficacy ([5]; patients homozygous or heterozygous for FcγRIIIA 158F, Carton 2002, Weng 2003): minimally effective
- clinical response ([5]; patients with FcγRIIIA 158 V/V homozygous genotype, Dall'Ozzo et al. 2004): better clinical response
